# Experimental data published in the Immune Epitope Database (IEDB).
# pKd: −log10 of the molar value.
# Tests used:
# HLA-B*15:03 = assay: IEDB peptide-MHC binding, purified MHC/competitive/radioactivity; filed as Kd, often an IC50 or EC50 that approximates it; ≥ and ≤ were set here for values at or beyond the usual limits of such assays
# HLA-B*18:01 = assay: as above
# HLA-B*40:01 = assay: as above
# HLA-B*40:02 = assay: as above
# HLA-B*44:02 = assay: as above
# HLA-B*44:03 = assay: as above
# HLA-B*45:01 = assay: as above
# HLA-A*02:01 [1] = assay: as above
# HLA-A*02:03 = assay: as above
# HLA-A*02:01 [2] = assay: IEDB peptide-MHC binding, purified MHC/competitive/fluorescence; filed as Kd, often an IC50 or EC50 that approximates it; ≥ and ≤ were set here for values at or beyond the usual limits of such assays; conditions: source organism: Yersinia pestis Nepal516
# HLA-B*15:01 [3] = assay: as above; conditions: source organism: Yersinia pestis Nepal516
# HLA-B*39:01 = assay: as above; conditions: source organism: Yersinia pestis Nepal516
# HLA-B*15:01 [4] = assay: IEDB peptide-MHC binding, purified MHC/competitive/radioactivity; filed as Kd, often an IC50 or EC50 that approximates it; ≥ and ≤ were set here for values at or beyond the usual limits of such assays
# HLA-A*26:01 = assay: IEDB peptide-MHC binding, purified MHC/competitive/fluorescence; filed as Kd, often an IC50 or EC50 that approximates it; ≥ and ≤ were set here for values at or beyond the usual limits of such assays; conditions: source organism: Escherichia coli str. K-12 substr. MG1655
# HLA-B*51:01 = assay: IEDB peptide-MHC binding, purified MHC/competitive/radioactivity; filed as Kd, often an IC50 or EC50 that approximates it; ≥ and ≤ were set here for values at or beyond the usual limits of such assays; conditions: source organism: Dengue virus 2 Jamaica/1409/1983
# HLA-A*32:01 = assay: as above
# HLA-B*08:01 = assay: as above
# HLA-B*07:02 = assay: as above; conditions: source organism: Dengue virus 2 Jamaica/1409/1983
# HLA-B*53:01 = assay: as above; conditions: source organism: Dengue virus 2 Jamaica/1409/1983
# HLA-A*30:01 = assay: as above; conditions: source organism: Vaccinia virus WR
# [5] = source organism: Vaccinia virus WR
# [6] = source organism: Mammarenavirus lassaense
# [7] = source organism: SARS coronavirus Tor2
# [8] = source organism: Mammarenavirus machupoense
# [9] = source organism: Mammarenavirus brazilense
# [10] = source organism: Vaccinia virus Copenhagen
# [11] = source organism: Mammarenavirus choriomeningitidis
sequence,measurement,setting,value
AAFEFINSL,pKd,HLA-B*15:03; [5],8.34
AEFKSRFFVW,pKd,HLA-B*18:01; [6],6.57
same,pKd,HLA-B*40:01; [6],5.63
same,pKd,HLA-B*40:02; [6],7.53
same,pKd,HLA-B*44:02; [6],7.87
same,pKd,HLA-B*44:03; [6],7.81
same,pKd,HLA-B*45:01; [6],7.29
AEMDGIQYG,pKd,HLA-B*18:01; [7],≤ 4.11
same,pKd,HLA-B*40:01; [7],5.69
same,pKd,HLA-B*40:02; [7],5.88
same,pKd,HLA-B*44:02; [7],7.94
same,pKd,HLA-B*44:03; [7],7.86
same,pKd,HLA-B*45:01; [7],7.32
ALKRAQSEL,pKd,HLA-A*02:01 [1]; source organism: Homo sapiens,≤ 4.38
same,pKd,HLA-A*02:03; source organism: Homo sapiens,7.63
AQRELFFTL,pKd,HLA-A*02:01 [2],5.89
same,pKd,HLA-B*15:01 [3],6.95
same,pKd,HLA-B*39:01,6.48
CSAPPGQHM,pKd,HLA-B*15:01 [4]; [5],7.28
same,pKd,HLA-B*15:03; [5],7.62
DVAKIEAPL,pKd,HLA-A*26:01,6.49
EELITDTEFL,pKd,HLA-B*18:01; [6],4.96
same,pKd,HLA-B*40:01; [6],4.90
same,pKd,HLA-B*40:02; [6],≤ 4.62
same,pKd,HLA-B*44:02; [6],5.32
same,pKd,HLA-B*44:03; [6],5.04
same,pKd,HLA-B*45:01; [6],4.91
EEPVPLLPLS,pKd,HLA-B*18:01; [8],≤ 4.28
same,pKd,HLA-B*40:01; [8],≤ 4.49
same,pKd,HLA-B*40:02; [8],5.15
same,pKd,HLA-B*44:02; [8],4.80
same,pKd,HLA-B*44:03; [8],5.20
same,pKd,HLA-B*45:01; [8],5.71
FLTIPPTAGI,pKd,HLA-A*02:03; source organism: Dengue virus 2 Jamaica/1409/1983,8.01
same,pKd,HLA-B*51:01,6.46
FQVVNPHLL,pKd,HLA-B*15:03; [5],7.39
FSGSFASIF,pKd,HLA-B*15:03; [5],9.50
GEDIQLLKA,pKd,HLA-B*18:01; [7],5.97
same,pKd,HLA-B*40:01; [7],5.12
same,pKd,HLA-B*40:02; [7],5.56
same,pKd,HLA-B*44:02; [7],4.87
same,pKd,HLA-B*44:03; [7],5.58
same,pKd,HLA-B*45:01; [7],5.54
GEHSLPRCW,pKd,HLA-B*18:01; [9],≤ 4.11
same,pKd,HLA-B*40:01; [9],≤ 4.37
same,pKd,HLA-B*40:02; [9],5.67
same,pKd,HLA-B*44:02; [9],7.62
same,pKd,HLA-B*44:03; [9],7.10
same,pKd,HLA-B*45:01; [9],5.06
GLQSQQGHL,pKd,HLA-A*02:01 [1]; source organism: Hepatitis B virus subtype ayw,≤ 5.30
GLTYSQLMT,pKd,HLA-A*02:01 [1]; source organism: Lassa virus Josiah,4.90
HMAYSFQTF,pKd,HLA-A*32:01; [10],7.79
same,pKd,HLA-B*08:01; [10],6.13
same,pKd,HLA-B*15:01 [4]; [10],9.61
same,pKd,HLA-B*15:03; [10],9.55
IDPTLTTWI,pKd,HLA-B*18:01; [9],≤ 4.38
same,pKd,HLA-B*40:01; [9],≤ 4.27
same,pKd,HLA-B*40:02; [9],≤ 5.00
same,pKd,HLA-B*44:02; [9],5.45
same,pKd,HLA-B*44:03; [9],5.86
same,pKd,HLA-B*45:01; [9],5.14
IETALRTLI,pKd,HLA-B*18:01; [11],5.46
same,pKd,HLA-B*40:01; [11],5.73
same,pKd,HLA-B*40:02; [11],6.81
same,pKd,HLA-B*44:02; [11],5.56
same,pKd,HLA-B*44:03; [11],5.66
same,pKd,HLA-B*45:01; [11],≤ 4.27
IPTAMAFHL,pKd,HLA-B*07:02,7.08
same,pKd,HLA-B*53:01,7.31
KEGFFTYLCG,pKd,HLA-B*18:01; [7],≤ 4.15
same,pKd,HLA-B*40:01; [7],5.79
same,pKd,HLA-B*40:02; [7],5.43
same,pKd,HLA-B*44:02; [7],5.58
same,pKd,HLA-B*44:03; [7],6.43
same,pKd,HLA-B*45:01; [7],5.54
KENDSKEGFF,pKd,HLA-B*18:01; [7],5.13
same,pKd,HLA-B*40:01; [7],5.57
same,pKd,HLA-B*40:02; [7],6.44
same,pKd,HLA-B*44:02; [7],7.40
same,pKd,HLA-B*44:03; [7],7.52
same,pKd,HLA-B*45:01; [7],7.61
LEFIHSQGF,pKd,HLA-B*15:03; [5],6.97
LESAQPGLL,pKd,HLA-B*18:01; [9],≤ 5.00
same,pKd,HLA-B*40:01; [9],6.83
same,pKd,HLA-B*40:02; [9],6.37
same,pKd,HLA-B*44:02; [9],5.53
same,pKd,HLA-B*44:03; [9],4.77
same,pKd,HLA-B*45:01; [9],4.87
LEWLAEVVKL,pKd,HLA-B*18:01; [7],5.91
same,pKd,HLA-B*40:01; [7],6.98
same,pKd,HLA-B*40:02; [7],≤ 4.70
same,pKd,HLA-B*44:02; [7],5.03
same,pKd,HLA-B*44:03; [7],5.14
same,pKd,HLA-B*45:01; [7],5.04
LHAVYSIVF,pKd,HLA-B*15:03; [5],8.06
LIGARRTSF,pKd,HLA-A*30:01,6.25
same,pKd,HLA-A*32:01; [5],5.24
same,pKd,HLA-B*08:01; [5],8.82
same,pKd,HLA-B*15:01 [4]; [5],7.40
same,pKd,HLA-B*15:03; [5],6.75
